Experimental data published in the supplement of paper PMC10567573.

B1: FAM107A (parent)
chain: HRRGLGVDSKPELQRVLEHRRRNQ

Variants of: B1
Assay: protein stability index of a GFP-peptide fusion (GPS, HEK-293T) (PSI 1-6); higher = more stable
Details: c terminus: a fixed tail appended
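Further: lentivirally expressed fusions sorted by FACS into six bins by GFP to DsRed ratio, PSI derived from sequencing read proportions per bin multiplied by bin number.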

Variant | protein stability index
HRRGLGVTSKPELQRVLEHRRRNQ | 4.41
HRRGLGVVSKPELQRVLEHRRRNQ | 4.07
HRRGLGVYSKPELQRVLEHRRRNQ | 2.41
HRRGLGVDAKPELQRVLEHRRRNQ | 2.99
HRRGLGVDDKPELQRVLEHRRRNQ | 4.67
HRRGLGVDEKPELQRVLEHRRRNQ | 4.39
HRRGLGVDFKPELQRVLEHRRRNQ | 3.52
HRRGLGVDGKPELQRVLEHRRRNQ | 4.41
HRRGLGVDHKPELQRVLEHRRRNQ | 4.46
HRRGLGVDIKPELQRVLEHRRRNQ | 4.66
HRRGLGVDKKPELQRVLEHRRRNQ | 4.76
HRRGLGVDLKPELQRVLEHRRRNQ | 4.15
HRRGLGVDMKPELQRVLEHRRRNQ | 4.14
HRRGLGVDPKPELQRVLEHRRRNQ | 4.38
HRRGLGVDRKPELQRVLEHRRRNQ | 4.8
HRRGLGVDVKPELQRVLEHRRRNQ | 3.98
HRRGLGVDWKPELQRVLEHRRRNQ | 3.55
HRRGLGVDYKPELQRVLEHRRRNQ | 4.16
HRRGLGVDSAPELQRVLEHRRRNQ | 4.56
HRRGLGVDSCPELQRVLEHRRRNQ | 3.82
HRRGLGVDSDPELQRVLEHRRRNQ | 4.89
HRRGLGVDSEPELQRVLEHRRRNQ | 4.55
HRRGLGVDSGPELQRVLEHRRRNQ | 4.5
HRRGLGVDSHPELQRVLEHRRRNQ | 4.18

Variant | protein stability index
HRRGLGVDSLPELQRVLEHRRRNQ | 2.36
HRRGLGVDSMPELQRVLEHRRRNQ | 4.27
HRRGLGVDSNPELQRVLEHRRRNQ | 4.48
HRRGLGVDSQPELQRVLEHRRRNQ | 4.92
HRRGLGVDSSPELQRVLEHRRRNQ | 5.01
HRRGLGVDSTPELQRVLEHRRRNQ | 4.38
HRRGLGVDSWPELQRVLEHRRRNQ | 2.6
HRRGLGVDSKAELQRVLEHRRRNQ | 4.05
HRRGLGVDSKCELQRVLEHRRRNQ | 4.13
HRRGLGVDSKDELQRVLEHRRRNQ | 4.29
HRRGLGVDSKGELQRVLEHRRRNQ | 4.55
HRRGLGVDSKHELQRVLEHRRRNQ | 4.35
HRRGLGVDSKIELQRVLEHRRRNQ | 3.42
HRRGLGVDSKKELQRVLEHRRRNQ | 3.82
HRRGLGVDSKMELQRVLEHRRRNQ | 3.99
HRRGLGVDSKQELQRVLEHRRRNQ | 3.73
HRRGLGVDSKRELQRVLEHRRRNQ | 4.13
HRRGLGVDSKTELQRVLEHRRRNQ | 3.51
HRRGLGVDSKVELQRVLEHRRRNQ | 3.95
HRRGLGVDSKWELQRVLEHRRRNQ | 3.25
HRRGLGVDSKYELQRVLEHRRRNQ | 2.59
HRRGLGVDSKPALQRVLEHRRRNQ | 4.3
HRRGLGVDSKPCLQRVLEHRRRNQ | 4.11
HRRGLGVDSKPDLQRVLEHRRRNQ | 2.18

Variant | protein stability index
HRRGLGVDSKPKLQRVLEHRRRNQ | 4.18
HRRGLGVDSKPLLQRVLEHRRRNQ | 4.02
HRRGLGVDSKPRLQRVLEHRRRNQ | 2.99
HRRGLGVDSKPTLQRVLEHRRRNQ | 2.98
HRRGLGVDSKPWLQRVLEHRRRNQ | 3.5
HRRGLGVDSKPEAQRVLEHRRRNQ | 4.31
HRRGLGVDSKPECQRVLEHRRRNQ | 3.67
HRRGLGVDSKPEDQRVLEHRRRNQ | 5.59
HRRGLGVDSKPEEQRVLEHRRRNQ | 5.77
HRRGLGVDSKPEFQRVLEHRRRNQ | 4.75
HRRGLGVDSKPEGQRVLEHRRRNQ | 4.94
HRRGLGVDSKPEHQRVLEHRRRNQ | 4.93
HRRGLGVDSKPEIQRVLEHRRRNQ | 4.71
HRRGLGVDSKPEKQRVLEHRRRNQ | 4.97
HRRGLGVDSKPEMQRVLEHRRRNQ | 4
HRRGLGVDSKPENQRVLEHRRRNQ | 5.21
HRRGLGVDSKPEQQRVLEHRRRNQ | 5.33
HRRGLGVDSKPERQRVLEHRRRNQ | 4.14
HRRGLGVDSKPESQRVLEHRRRNQ | 4.93
HRRGLGVDSKPETQRVLEHRRRNQ | 5.23
HRRGLGVDSKPEVQRVLEHRRRNQ | 3.94
HRRGLGVDSKPEYQRVLEHRRRNQ | 4.95
HRRGLGVDSKPELCRVLEHRRRNQ | 4.03
HRRGLGVDSKPELDRVLEHRRRNQ | 4.07

Variant | protein stability index
HRRGLGVDSKPELFRVLEHRRRNQ | 3.62
HRRGLGVDSKPELGRVLEHRRRNQ | 4.8
HRRGLGVDSKPELHRVLEHRRRNQ | 3.48
HRRGLGVDSKPELIRVLEHRRRNQ | 2.75
HRRGLGVDSKPELKRVLEHRRRNQ | 3.39
HRRGLGVDSKPELMRVLEHRRRNQ | 2.81
HRRGLGVDSKPELNRVLEHRRRNQ | 4.5
HRRGLGVDSKPELPRVLEHRRRNQ | 4
HRRGLGVDSKPELSRVLEHRRRNQ | 3.71
HRRGLGVDSKPELTRVLEHRRRNQ | 4.28
HRRGLGVDSKPELVRVLEHRRRNQ | 3.86
HRRGLGVDSKPELYRVLEHRRRNQ | 3.15
HRRGLGVDSKPELQAVLEHRRRNQ | 4.26
HRRGLGVDSKPELQDVLEHRRRNQ | 4.26
HRRGLGVDSKPELQEVLEHRRRNQ | 4.17
HRRGLGVDSKPELQFVLEHRRRNQ | 4.19
HRRGLGVDSKPELQGVLEHRRRNQ | 5.35
HRRGLGVDSKPELQHVLEHRRRNQ | 4.25
HRRGLGVDSKPELQKVLEHRRRNQ | 3.31
HRRGLGVDSKPELQMVLEHRRRNQ | 4.06
HRRGLGVDSKPELQNVLEHRRRNQ | 4.29
HRRGLGVDSKPELQPVLEHRRRNQ | 4.89
